Laboratory results from PMC2840190.

How the values were obtained:
[1] = target: gp120-A prebound to sCD4 (HIV-1 (A subtype, isolate 92UG031) | human); test: ITC
[2] = target: gp120-B prebound to sCD4 (HIV-1 (B subtype, isolate YU2) | human) (UniProt P35961); test: ITC
UniProt P35961, sequence (P35961 whole entry, looked up): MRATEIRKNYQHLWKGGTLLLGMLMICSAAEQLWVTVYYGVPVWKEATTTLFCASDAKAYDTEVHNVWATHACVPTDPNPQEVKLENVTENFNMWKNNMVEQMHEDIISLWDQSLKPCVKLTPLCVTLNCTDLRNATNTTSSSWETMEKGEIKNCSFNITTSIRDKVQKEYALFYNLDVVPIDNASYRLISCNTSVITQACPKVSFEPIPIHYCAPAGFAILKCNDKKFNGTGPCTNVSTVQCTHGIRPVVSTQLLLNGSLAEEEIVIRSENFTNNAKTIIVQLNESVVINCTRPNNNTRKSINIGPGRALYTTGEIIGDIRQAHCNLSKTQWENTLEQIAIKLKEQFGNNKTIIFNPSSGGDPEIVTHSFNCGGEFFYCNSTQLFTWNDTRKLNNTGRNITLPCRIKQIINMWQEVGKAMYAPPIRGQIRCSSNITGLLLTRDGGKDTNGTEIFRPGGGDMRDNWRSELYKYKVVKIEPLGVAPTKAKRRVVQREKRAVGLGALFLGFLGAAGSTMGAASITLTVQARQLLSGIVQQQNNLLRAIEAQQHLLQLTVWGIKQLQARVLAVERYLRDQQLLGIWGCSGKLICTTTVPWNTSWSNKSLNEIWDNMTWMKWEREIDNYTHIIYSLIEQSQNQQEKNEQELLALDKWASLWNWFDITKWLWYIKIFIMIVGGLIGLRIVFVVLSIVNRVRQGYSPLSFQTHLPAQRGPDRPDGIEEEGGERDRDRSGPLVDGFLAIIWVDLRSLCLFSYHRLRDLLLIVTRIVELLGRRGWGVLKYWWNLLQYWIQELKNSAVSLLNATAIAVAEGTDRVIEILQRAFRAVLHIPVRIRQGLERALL

## Monoclonal antibody 17b
[1]
  Kd: 12 nM
[2]
  dH: -11.1 kcal/mol
